Tests used:
[1] = biological target: T1, human BCMA on RPMI 8226 multiple myeloma cells (human, UniProt Q02223 1-184); test: flow cytometry titration on RPMI 8226 cells, detection with goat anti-human IgG Fcγ-PE; representative titration
T1 construct: whole, on cells; also called BCMA on RPMI cells
T1 sequence (looked up): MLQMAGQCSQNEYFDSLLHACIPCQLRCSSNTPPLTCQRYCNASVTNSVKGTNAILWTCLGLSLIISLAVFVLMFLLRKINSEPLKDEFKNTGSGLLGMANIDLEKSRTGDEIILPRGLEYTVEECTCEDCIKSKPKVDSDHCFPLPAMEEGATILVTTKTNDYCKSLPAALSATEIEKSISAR
Description: (§1) After staining, cells were resuspended in BD Cellfix and analyzed by flow cytometry. Parameters were recorded and analysed with FlowJo software. Staining EC50 values were calculated with GraphPad prism using 4 parameter logistics non-linear regression model.

[2] = biological target: recombinant human BCMA (human, UniProt Q02223 1-54); test: SPR (Biacore 8K), NKCE captured by anti-human Fc, antigen as analyte, 1:1 model; mean of 3 experiments
Description: (§2) Measurements were performed in multicycle kinetics experiments for each antibody using a Biacore 8K instrument. In each multicycle experiment the antibodies were captured via an anti-hum a Fc antibody immobilized on a series S CM5 sensor chip (human antibody capture kit, Cytiva, Uppsala, Catalog No. BR1008-39).
(§3) The antigens, diluted as described above (concentration range 0.1 nM to 50 nM), were injected at a flow rate of 60 μL/min for 240 sec followed by a dissociation phase of 400 sec. All analyte concentrations were run in duplicate together with multiple buffer blanks for double referencing. Regeneration of the capture surface was performed with regeneration solution (3 mol/L MgCl2) for 60 sec at 30 μL/min. Binding kinetics data were evaluated with the Biacore 8K Evaluation Software version 1.1.1.7442 using a 1:1 binding model with mass transport limitation.

[3] = biological target: T2, recombinant human NKp46 extracellular domain (Gln22-Asn255) with C-terminal 6xHis tag (human, UniProt O76036 22-255); test: as above
T2 construct: range 22-255; also called huNKp46
T2 sequence (O76036 other isoform, or with tags, fused parts or gaps limits assumed): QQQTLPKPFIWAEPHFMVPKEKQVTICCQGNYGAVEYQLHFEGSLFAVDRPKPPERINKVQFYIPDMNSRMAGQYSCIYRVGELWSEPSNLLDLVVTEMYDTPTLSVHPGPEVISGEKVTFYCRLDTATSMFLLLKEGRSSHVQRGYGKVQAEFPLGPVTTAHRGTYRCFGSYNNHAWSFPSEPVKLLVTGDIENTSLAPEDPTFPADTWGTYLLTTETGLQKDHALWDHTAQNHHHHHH
Description: as §2, §3

[4] = biological target: T3, cyno BCMA (PPB-17990) (cynomolgus, UniProt A0A2K5UD97 1-53); test: as above
T3 construct: also called cynomolgus BCMA
T3 sequence (A0A2K5UD97 entry or part of it): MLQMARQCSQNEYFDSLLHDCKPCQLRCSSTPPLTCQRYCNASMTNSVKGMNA
Description: as §2, §3

[5] = biological target: T4, human NKp46 on NK cells purified from PBMC of healthy donors (human, UniProt O76036 22-304); test: flow cytometry titration on resting human NK cells from healthy donors, detection with goat anti-human IgG Fcγ-PE, 4-parameter fit; mean of 3 NK donors; NK cells also carry CD16a
T4 construct: whole, on cells; also called NKp46 on donor NK cells
T4 sequence (O76036 22-304): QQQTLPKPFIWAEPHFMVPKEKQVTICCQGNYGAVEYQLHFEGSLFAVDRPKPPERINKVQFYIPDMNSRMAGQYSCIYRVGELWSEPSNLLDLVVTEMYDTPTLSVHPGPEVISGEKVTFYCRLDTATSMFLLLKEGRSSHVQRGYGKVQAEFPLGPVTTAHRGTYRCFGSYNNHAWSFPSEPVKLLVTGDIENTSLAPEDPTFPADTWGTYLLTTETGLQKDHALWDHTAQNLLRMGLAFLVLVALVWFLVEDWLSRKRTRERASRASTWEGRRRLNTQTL
Description: as §1

[6] = biological target: T5, human CD64 (human FcγRI) (human, UniProt P12314 16-292, limits assumed); test: SPR, fit 1:1 Binding, Exp No 2
T5 construct: also called HuFcyRI
T5 sequence (P12314 16-292 limits assumed): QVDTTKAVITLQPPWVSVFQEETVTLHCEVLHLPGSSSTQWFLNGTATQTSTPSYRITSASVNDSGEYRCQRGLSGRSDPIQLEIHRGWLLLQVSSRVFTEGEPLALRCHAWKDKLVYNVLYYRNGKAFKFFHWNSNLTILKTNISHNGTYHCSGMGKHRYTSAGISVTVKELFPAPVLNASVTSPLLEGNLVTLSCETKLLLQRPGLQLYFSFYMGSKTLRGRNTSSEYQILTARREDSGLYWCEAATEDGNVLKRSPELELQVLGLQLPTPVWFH

[7] = biological target: T1, human BCMA on RPMI 8226 multiple …; test: flow cytometry titration on RPMI 8226 cells, detection with goat anti-human IgG Fcγ-PE, 4-parameter fit; mean of 5 independent titrations
Description: as §1

[8] = biological target: T6, human CD16b (human FcgRIIIB) (human, UniProt O75015 17-200, limits assumed); test: SPR, fit Steady State Affinity, Exp No 2
T6 construct: also called HuFcyRIIIb
T6 sequence (O75015 17-200 limits assumed): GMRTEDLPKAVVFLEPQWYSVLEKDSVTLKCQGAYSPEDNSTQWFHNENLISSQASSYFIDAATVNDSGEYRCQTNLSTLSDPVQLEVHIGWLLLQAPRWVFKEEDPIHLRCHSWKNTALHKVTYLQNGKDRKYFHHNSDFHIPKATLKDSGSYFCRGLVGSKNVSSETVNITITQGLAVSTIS

[9] = biological target: T7, cynomolgus CD32a (cynomolgus); test: SPR, fit Steady State Affinity, Exp No 2
T7 construct: also called CyFcyRIIa

[10] = biological target: T8, human CD32b (human FcγRIIB) (human, UniProt P31994 43-217, limits assumed); test: SPR, fit Steady State Affinity, Exp No 2
T8 construct: also called HuFcyRIIb
T8 sequence (looked up): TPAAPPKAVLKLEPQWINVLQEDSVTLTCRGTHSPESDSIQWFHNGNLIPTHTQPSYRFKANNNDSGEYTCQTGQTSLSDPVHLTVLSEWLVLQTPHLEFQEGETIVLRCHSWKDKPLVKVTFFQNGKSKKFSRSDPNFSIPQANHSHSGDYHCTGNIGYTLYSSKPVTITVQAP

[11] = biological target: T9, cynomolgus CD32b (cynomolgus); test: SPR, fit Steady State Affinity, Exp No 2
T9 construct: also called CyFcyRIIb

[12] = biological target: T10, human CD32a (human FcγRIIA) (human, UniProt P12318 34-217, limits assumed); test: SPR, fit Steady State Affinity, Exp No 2
T10 construct: also called HuFcyRIIa
T10 sequence (looked up): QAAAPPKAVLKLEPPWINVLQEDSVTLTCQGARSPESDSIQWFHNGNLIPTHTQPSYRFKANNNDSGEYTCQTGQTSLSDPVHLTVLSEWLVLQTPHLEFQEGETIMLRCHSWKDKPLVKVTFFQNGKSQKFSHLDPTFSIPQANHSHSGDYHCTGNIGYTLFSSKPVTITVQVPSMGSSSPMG

[13] = biological target: T4, human NKp46 on NK cells purified from …; test: flow cytometry titration on resting human NK cells from healthy donors, detection with goat anti-human IgG Fcγ-PE; representative titration; NK cells also carry CD16a
Description: as §1

[14] = biological target: T11, human CD16a (human FcγRIIIA), V isoform (human, UniProt P08637 17-208); test: SPR (Biacore T200), His-tagged huCD16a captured by anti-His antibody on CM5 chip, antibody injected at 5.8-3000 nmol/L, steady state fit
T11 construct: also called HuFcyRIIIaV; CD16a (V176)
T11 sequence (P08637 17-208 F176V limits assumed): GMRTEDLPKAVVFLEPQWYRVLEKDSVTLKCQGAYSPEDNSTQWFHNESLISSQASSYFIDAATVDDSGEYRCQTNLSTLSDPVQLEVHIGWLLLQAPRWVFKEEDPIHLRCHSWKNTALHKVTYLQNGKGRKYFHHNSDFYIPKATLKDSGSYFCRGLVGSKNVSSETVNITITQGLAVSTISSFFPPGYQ
Excerpt: All analyte concentrations were run in duplicate together with multiple buffer blanks for double referencing.

[15] = biological target: T11, human CD16a (human FcγRIIIA), V isoform; test: SPR, fit Two State Reaction, Exp No 3
[16] = biological target: T12, cynomolgus CD16 (cynomolgus, UniProt Q8SPW2 17-208); test: SPR, fit Two State Reaction, Exp No 3
T12 construct: also called CyFcyRIII
T12 sequence (Q8SPW2 17-208): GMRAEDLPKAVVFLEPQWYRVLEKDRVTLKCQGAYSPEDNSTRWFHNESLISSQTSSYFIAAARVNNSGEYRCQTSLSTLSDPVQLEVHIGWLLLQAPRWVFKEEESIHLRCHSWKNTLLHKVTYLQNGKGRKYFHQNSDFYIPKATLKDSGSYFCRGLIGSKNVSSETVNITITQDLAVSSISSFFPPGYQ

B1: NKp46-BCMA_Fc-ADE-DSB NKCE (bispecific antibody, human IgG1, kappa)
light: QTVVTQEPSLTVSPGGTVTLTCASSTGTVTPSNYANWVQQKPGQAFRGLIGDNNSRPPGTPARFSASLLGGKAALTLSGVQPEDEAEYYCALWFGNQWVFGGGTKLTVLGGGGSGGGGSDIQMTQSPSSLSASVGDRVTITCRASQDISNYLNWYQQKPGKAPKLLIYYTSRLHSGVPSRFSGSGSGTDFTFTISSLQPEDIATYFCQQGNTRPWTFGGGTKVEIKGGGGSGGGGSRTVAAPSVFIFPPSDEQLKSGTASVVCLLNNFYPREAKVQWKVDNALQSGNSQESVTEQDSKDSTYSLSSTLTLSKADYEKHKVYACEVTHQGLSSPVTKSFNRGEC
heavy: QVQLVQSGAEVKKPGSSVKVSCKASGYTFSDYVINWVRQAPGQGLEWMGEIYPGSGTNYYNEKFKAKATITADKSTSTAYMELSSLRSEDTAVYYCARRGRYGLYAMDYWGQGTTVTVSSQVQLVESGGGVVQPGRSLRLSCAASGFTFSNFGMHWVRQAPGRGLEWVAVIWSDETNRYYADSVKGRFTVSRDNVKSTVYLQMNSLISEDTAVYYCARDQQYCSSDSCFTWFDPWGQGTLVTVSSASTKGPSVFPLAPSSKSTSGGTAALGCLVKDYFPEPVTVSWNSGALTSGVHTFPAVLQSSGLYSLSSVVTVPSSSLGTQTYICNVNHKPSNTKVDKKVEPKSCDKTHTCPPCPAPELLAGPDVFLFPPKPKDTLMISRTPEVTCVVVDVSHEDPEVKFNWYVDGVEVHNAKTKPCEEQYNSTYRCVSVLTVLHQDWLNGKEYKCKVSNKALPAPEEKTISKAKGQPREPQVYTLPPCRDELTKNQVSLWCLVKGFYPSDIAVEWESNGQPENNYKTTPPVLDSDGSFFLYSKLTVDKSRWQQGNVFSCSVMHEALHNHYTQKSLSLSPG
chain: DKTHTCPPCPAPELLAGPDVFLFPPKPKDTLMISRTPEVTCVVVDVSHEDPEVKFNWYVDGVEVHNAKTKPCEEQYNSTYRCVSVLTVLHQDWLNGKEYKCKVSNKALPAPEEKTISKAKGQPREPQVCTLPPSRDELTKNQVSLSCAVKGFYPSDIAVEWESNGQPENNYKTTPPVLDSDGSFFLVSKLTVDKSRWQQGNVFSCSVMHEALHNRFTQKSLSLSPG
In the case of B1, the “EC50 (read off the curve)” value [1] is reported as ~1 µg/mL, the Kd [2] is reported as 0.2 nM and the Kd [3] is reported as 12.5 nM. The Kd [4] was 0.3 nM, the EC50 [5] was 0.643 µg/mL and the Kd [6] was 0.27 nM. For the same binder, the EC50 [7] was 1.33 µg/mL, the Kd [8] was 1690 nM and the Kd [9] was 1440 nM. The Kd [10] was 1060 nM, the Kd [11] was 1070 nM and the Kd [12] was 656 nM. The “EC50 (read off the curve)” value [13] was ~0.9 µg/mL, the Kd [14] was 165 nM and the Kd [15] was 16.5 nM. It also gave a Kd [16] of 15.7 nM.
